Measurements taken from US20230233607A1 (University of California, published 2023).

Columns and labels:
LexA-CIB1-biLINuS = target: T1, LexA-CIB1-biLINuS; experiment: cell-based or functional assay
T1 chain: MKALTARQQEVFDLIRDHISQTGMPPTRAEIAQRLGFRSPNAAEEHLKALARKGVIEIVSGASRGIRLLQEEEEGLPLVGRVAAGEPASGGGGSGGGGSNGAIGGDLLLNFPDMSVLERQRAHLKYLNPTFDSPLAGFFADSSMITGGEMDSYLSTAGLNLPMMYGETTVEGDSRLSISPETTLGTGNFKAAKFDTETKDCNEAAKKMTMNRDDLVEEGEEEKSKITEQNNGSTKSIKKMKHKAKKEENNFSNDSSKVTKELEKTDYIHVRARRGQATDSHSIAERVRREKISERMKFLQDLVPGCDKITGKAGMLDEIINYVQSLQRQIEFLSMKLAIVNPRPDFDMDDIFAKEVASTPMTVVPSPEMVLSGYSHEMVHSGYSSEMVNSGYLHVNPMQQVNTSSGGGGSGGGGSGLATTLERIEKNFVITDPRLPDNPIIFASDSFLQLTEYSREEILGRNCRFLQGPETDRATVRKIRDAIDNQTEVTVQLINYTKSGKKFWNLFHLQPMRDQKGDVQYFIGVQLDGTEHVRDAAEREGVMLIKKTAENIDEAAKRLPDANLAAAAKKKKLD

LexA-CIB1 (No biLINuS) = experiment: cell-based or functional assay

B1: CRY2PHR-VPR (other)
chain: MKMDKKTIVWFRRDLRIEDNPALAAAAHEGSVFPVFIWCPEEEGQFYPGRASRWWMKQSLAHLSQSLKALGSDLTLIKTHNTISAILDCIRVTGATKVVFNHLYDPVSLVRDHTVKEKLVERGISVQSYNGDLLYEPWEIYCEKGKPFTSFNSYWKKCLDMSIESVMLPPPWRLMPITAAAEAIWACSIEELGLENEAEKPSNALLTRAWSPGWSNADKLLNEFIEKQLIDYAKNSKKVVGNSTSLLSPYLHFGEISVRHVFQCARMKQIIWARDKNSEGEESADLFLRGIGLREYSRYICFNFPFTHEQSLLSHLRFFPWDADVDKFKAWRQGRTGYPLVDAGMRELWATGWMHNRIRVIVSSFAVKFLLLPWKWGMKYFWDTLLDADLECDILGWQYISGSIPDGHELDRLDNPALQGAKYDPEGEYIRQWLPELARLPTEWIHHPWDAPLTVLKASGVELGTNYAKPIVDIDTARELLAKAISRTREAQIMIGAAPASPKKKRKVEASSPGIRRLDALISTSLYKKAGYKEASGSGRADALDDFDLDMLGSDALDDFDLDMLGSDALDDFDLDMLGSDALDDFDLDMLINSRSSGSPKKKRKVGSQYLPDTDDRHRIEEKRKRTYETFKSIMKKSPFSGPTDPRPPPRRIAVPSRSSASVPKPAPQPYPFTSSLSTINYDEFPTMVFPSGQISQASALAPAPPQVLPQAPAPAPAPAMVSALAQAPAPVPVLAPGPPQAVAPPAPKPTQAGEGTLSEALLQLQFDDEDLGALLGNSTDPAVFTDLASVDNSEFQQLLNQGIPVAPHTTEPMLMEYPEAITRLVTGAQRPPDPAPAPLGAPGLPNGLLSGDEDFSSIADMDFSALLGSGSGSRDSREGMFLPKPEAGSAISDVFEGREVCQPKRIRPFHPPGSPWANRPLPASLAPTPTGPVHEPVGSLTPAPVPQPLDPAPAVTPEASHLLEDPDEETSQAVKALREMADTVIPQKEEAAICGQMDLSHPPPRGHLDELTTTLESMTEDLNLDSPLTPELNEILDTFLNDECLLHAMHISTGLSIFDTSLF
Q: How did the “increase of Fluc signal in the light-stimulated group comparing to the dark group (Jurkat cells)” value (LexA-CIB1-biLINuS) turn out when B1 was run?
A: > 1000 fold

Q: What about the “induction of Fluc activity normalized by Rluc upon light stimulation compared to the dark control (HEK 293T)” value (LexA-CIB1-biLINuS) of the same binder?
A: 133 fold

Q: And the “mean cellular fluorescence intensity of mNeonGreen reporter, dark group, compared to the non-transfected cells (HEK 293T)” value (LexA-CIB1-biLINuS)?
A: 1.7 fold

Q: And the “mean cellular fluorescence intensity of mNeonGreen reporter, light group, compared to the non-transfected cells (HEK 293T)” value (LexA-CIB1-biLINuS)?
A: 61 fold

Q: And the “induction of Fluc activity normalized by Rluc upon light stimulation compared to the dark control (HEK 293T)” value (LexA-CIB1 (No biLINuS))?
A: 68 fold
